# Assay results as given in US9410182B2, “Phosphatase coupled glycosyltransferase assay” (Bio-Techne Corporation, priority 2010, dated 2016).
# B1: Fut7: recombinant human fucosyltransferase 7 from R&D Systems (protein, UniProt Q11130 1-342, looked up)
# Alpha-(1,3)-fucosyltransferase …: MNNAGHGPTRRLRGLGVLAGVALLAALWLLWLLGSAPRGTPAPQPTITILVWHWPFTDQPPELPSDTCTRYGIARCHLSANRSLLASADAVVFHHRELQTRRSHLPLAQRPRGQPWVWASMESPSHTHGLSHLRGIFNWVLSYRRDSDIFVPYGRLEPHWGPSPPLPAKSRVAAWVVSNFQERQLRARLYRQLAPHLRVDVFGRANGRPLCASCLVPTVAQYRFYLSFENSQHRDYITEKFWRNALVAGTVPVVLGPPRATYEAFVPADAFVHVDDFGSARELAAFLTGMNESRYQRFFAWRDRLRVRLFTDWRERFCAICDRYPHLPRSQVYEDLEGWFQA
# Test: Transferase activity of Fut7 on 3′-sialyl-N-acetyllactosamine assayed with CD39L3
# Assay type: biochemical
# Conditions: 0.1 μg CD39L3, 40 μM GDP-fucose, 40 μM 3′-sialyl-N-acetyllactosamine, 37° C., 30 minutes
# Excerpt: The GDP-Fucose, UDP-Glucose, CMP-NeuAc, CMP, UDP and GDP used in the following experiments were obtained from Sigma-Aldrich (St Louis, Mo.). The recombinant human Fut7, ST6Gal1, CD73, CD39L3, non-specific alkaline phosphatase TNAP, recombinant Clostridium Difficile toxin B (TcdB) containing the glycosyltransferase domain and Malachite Green Phosphate Detection Kit were obtained from R&D Systems (Minneapolis, Minn.). The 3′-Sialyl-N-acetyllactosamine was obtained from V-LABS, Inc (Convington, La.). Unless otherwise specified, each glycosyltransferase reaction was performed in 50 μL of a buffer of 25 mM Tris, 150 mM NaCl, 5 mM MgCl2 and 5 mM MnCl2, at pH 7.5 in a 96-well plate at room temperature for 20 minutes. To determine kinetic parameters of each glycosyltransferase, multiple reactions with varied amounts of either glycosyltransferase or substrates were preceded simultaneously in the presence of fixed amounts of all other components, including a phosphatase. A well containing all components except glycosyltransferase served as a blank control for each example. […] The plate was then read at 620 nm with a multi-well plate reader.
# The only known function of fucosyltransferase 7 (Fut7) is the biosynthesis of sialy Lewis X epitope in leukocytes and high endothelial venule cells. […] The reaction was then stopped and detected by malachite reagents. […]
molecule,measurement,value
B1,specific activity of the enzyme,12.6 pmol/min/µg
